According to patent US20240360194A1, “New Peptides as Potent and Selective GIP Receptor Agonists” (Sanofi, priority 2021, published 2024):
Numbered stars: 1 amine (or outer) side, 2 acyl side, 3 side chain; on linkers, the order of the positions; unused ones are H or OH. Square brackets hold non-standard residues; d marks the D form. Side chains are listed from the residue outwards. Ends that are not written are not given here. * marks the point of attachment. C18 diacid = O=C(O)CCCCCCCCCCCCCCCCC(=O)*; γGlu = O=C(O)[C@H](CCC(=O)[*:2])N[*:1]; AEEA = NCCOCCOCC(=O)O; Aib = CC(C)(N)C(=O)O

How the values were obtained:
[1] = molecular target: T1, human GIP receptor (human, UniProt P48546 22-466); test: cell-based or functional assay
T1 sequence (looked up): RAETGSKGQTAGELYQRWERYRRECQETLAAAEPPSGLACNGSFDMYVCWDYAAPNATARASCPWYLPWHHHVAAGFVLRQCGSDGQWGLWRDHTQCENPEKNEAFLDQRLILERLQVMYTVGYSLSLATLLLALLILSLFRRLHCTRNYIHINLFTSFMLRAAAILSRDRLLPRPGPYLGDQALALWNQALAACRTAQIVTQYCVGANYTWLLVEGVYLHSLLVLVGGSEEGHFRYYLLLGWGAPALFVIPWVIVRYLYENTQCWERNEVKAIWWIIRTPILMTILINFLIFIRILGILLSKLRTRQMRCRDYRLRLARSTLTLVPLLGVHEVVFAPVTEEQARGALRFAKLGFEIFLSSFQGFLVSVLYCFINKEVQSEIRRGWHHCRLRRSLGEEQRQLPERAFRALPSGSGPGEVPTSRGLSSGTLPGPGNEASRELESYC

[2] = molecular target: T2, human GLP-1 receptor (human, UniProt P43220 24-463); test: cell-based or functional assay
[3] = molecular target: T1, human GIP receptor; test: cell-based or functional assay; remark: listed apart in the source
[4] = molecular target: T2, human GLP-1 receptor; test: displacement of [125I]GLP-1 from HEK-293 membranes expressing hGLP-1R (SPA beads)

B1: SEQ ID NO: 27 (peptide)
peptide: Y[Aib]EGTFISDLSI[Aib]K([AEEA-AEEA-γGlu-C18 diacid])DRIHQEEFIEWLLAQEPSSGAPPPS-NH2
modifications: N-terminus assumed
SMILES: CC[C@H](C)[C@H](NC(=O)[C@H](Cc1ccccc1)NC(=O)[C@H](CCC(=O)O)NC(=O)[C@H](CCC(=O)O)NC(=O)[C@H](CCC(N)=O)NC(=O)[C@H](Cc1c[nH]cn1)NC(=O)[C@@H](NC(=O)[C@H](CCCNC(=N)N)NC(=O)[C@H](CC(=O)O)NC(=O)[C@H](CCCCNC(=O)COCCOCCNC(=O)COCCOCCNC(=O)CC[C@H](NC(=O)CCCCCCCCCCCCCCCCC(=O)O)C(=O)O)NC(=O)C(C)(C)NC(=O)[C@@H](NC(=O)[C@H](CO)NC(=O)[C@H](CC(C)C)NC(=O)[C@H](CC(=O)O)NC(=O)[C@H](CO)NC(=O)[C@@H](NC(=O)[C@H](Cc1ccccc1)NC(=O)[C@@H](NC(=O)CNC(=O)[C@H](CCC(=O)O)NC(=O)C(C)(C)NC(=O)[C@@H](N)Cc1ccc(O)cc1)[C@@H](C)O)[C@@H](C)CC)[C@@H](C)CC)[C@@H](C)CC)C(=O)N[C@@H](CCC(=O)O)C(=O)N[C@@H](Cc1c[nH]c2ccccc12)C(=O)N[C@@H](CC(C)C)C(=O)N[C@@H](CC(C)C)C(=O)N[C@@H](C)C(=O)N[C@@H](CCC(N)=O)C(=O)N[C@@H](CCC(=O)O)C(=O)N1CCC[C@H]1C(=O)N[C@@H](CO)C(=O)N[C@@H](CO)C(=O)NCC(=O)N[C@@H](C)C(=O)N1CCC[C@H]1C(=O)N1CCC[C@H]1C(=O)N1CCC[C@H]1C(=O)N[C@@H](CO)C(N)=O
notes: Synthetic peptide, 39 residues (Glu at 30)
EC50 hGIPR 0% HSA (cAMP, HEK-293) [1]: 0.00029 nM
EC50 hGIPR 0.1% BSA (cAMP, HEK-293) [1]: 0.032 nM
EC50 hGLP-1R 0.1% BSA (cAMP, HEK-293) [2]: > 10 nM
hGIPR EC50 (cAMP, human adipocytes) [3]: 0.6 nM
hGIPR Emax (cAMP, human adipocytes) [3]: 116%
IC50 [4]: 465 nM

B2: SEQ ID NO: 21 (peptide)
peptide: Y[Aib]EGTFISDLSI[Aib]K([AEEA-AEEA-γGlu-C18 diacid])ERIHQ[Aib]EFIEWLLAQGPSSGAPPPS-NH2
modifications: N-terminus assumed
SMILES: CC[C@H](C)[C@H](NC(=O)[C@H](CCCNC(=N)N)NC(=O)[C@H](CCC(=O)O)NC(=O)[C@H](CCCCNC(=O)COCCOCCNC(=O)COCCOCCNC(=O)CC[C@H](NC(=O)CCCCCCCCCCCCCCCCC(=O)O)C(=O)O)NC(=O)C(C)(C)NC(=O)[C@@H](NC(=O)[C@H](CO)NC(=O)[C@H](CC(C)C)NC(=O)[C@H](CC(=O)O)NC(=O)[C@H](CO)NC(=O)[C@@H](NC(=O)[C@H](Cc1ccccc1)NC(=O)[C@@H](NC(=O)CNC(=O)[C@H](CCC(=O)O)NC(=O)C(C)(C)NC(=O)[C@@H](N)Cc1ccc(O)cc1)[C@@H](C)O)[C@@H](C)CC)[C@@H](C)CC)C(=O)N[C@@H](Cc1c[nH]cn1)C(=O)N[C@@H](CCC(N)=O)C(=O)NC(C)(C)C(=O)N[C@@H](CCC(=O)O)C(=O)N[C@@H](Cc1ccccc1)C(=O)N[C@H](C(=O)N[C@@H](CCC(=O)O)C(=O)N[C@@H](Cc1c[nH]c2ccccc12)C(=O)N[C@@H](CC(C)C)C(=O)N[C@@H](CC(C)C)C(=O)N[C@@H](C)C(=O)N[C@@H](CCC(N)=O)C(=O)NCC(=O)N1CCC[C@H]1C(=O)N[C@@H](CO)C(=O)N[C@@H](CO)C(=O)NCC(=O)N[C@@H](C)C(=O)N1CCC[C@H]1C(=O)N1CCC[C@H]1C(=O)N1CCC[C@H]1C(=O)N[C@@H](CO)C(N)=O)[C@@H](C)CC
notes: Synthetic peptide, 39 residues
EC50 hGIPR 0% HSA (cAMP, HEK-293) [1]: 0.00019 nM
EC50 hGIPR 0.1% BSA (cAMP, HEK-293) [1]: 0.00836 nM
EC50 hGLP-1R 0.1% BSA (cAMP, HEK-293) [2]: > 10 nM
hGIPR EC50 (cAMP, human adipocytes) [3]: 2.8 nM
hGIPR Emax (cAMP, human adipocytes) [3]: 120%
IC50 [4]: 146 nM
